Residue numbers refer to the chain shown, from its start. Values joined by “and” are separate entries in the source; they are usually repeats but may differ in a detail not shown here. Identical values can stand only once.
T1: recombinant human BCMA Fc(kih) (human, UniProt Q02223 4-53, site-specifically biotinylated at the C-terminal avi-tag ; Biotin on the avi-tag at the C-terminus of the Fc knob chain (tag and Fc left out).)
T1 construct: Knobs-into-holes heterodimer carrying one BCMA ectodomain; also called huBCMA Fc(kih); huBCMA; not shown: human IgG1 hinge-Fc knob chain with C-terminal avi-tag, and the unfused Fc hole chain
T1 chain: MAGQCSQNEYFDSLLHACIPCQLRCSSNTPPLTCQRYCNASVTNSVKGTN

T2: human BCMA on cells (human, UniProt Q02223 1-184)
T2 construct: whole, on cells; also called huBCMA on HEK cells; HEK-huBCMA cells
T2 sequence (looked up): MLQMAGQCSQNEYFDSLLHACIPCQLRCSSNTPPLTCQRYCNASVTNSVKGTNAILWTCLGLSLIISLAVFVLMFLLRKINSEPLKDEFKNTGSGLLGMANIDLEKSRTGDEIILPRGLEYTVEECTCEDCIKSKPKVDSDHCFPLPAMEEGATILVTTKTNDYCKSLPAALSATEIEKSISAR

B1: Mab 21 IgG (antibody, V domains shown)
VH: EVQLLESGGGLVQPGGSLRLSCAASGFTFSDNAMGWVRQAPGKGLEWVSAISGPGSSTYYADSVKGRFTISRDNSKNTLYLQMNSLRAEDTAVYYCAKVLGWFDYWGQGTLVTVSS
VL: EIVLTQSPGTLSLSPGERATLSCRASQSVSEYYLAWYQQKPGQAPRLLIEHASTRATGIPDRFSGSGSGTDFTLTISRLEPEDFAVYYCQQYGYPPDFTFGQGTKVEIK
notes: also called antibody 21
B2: Mab 27 IgG (antibody, V domains shown)
VH: EVQLLESGGGLVQPGGSLRLSCAASGFTFSSAPMGWVRQAPGKGLEWVSAISYIGHTYYADSVKGRFTISRDNSKNTLYLQMNSLRAEDTAVYYCAKVLGWFDYWGQGTLVTVSS
VL: B1 VL
B3: Mab 39 IgG (antibody, V domains shown)
VH: B1 VH with S30T, D31Q, G53P, P54T, S56F
VL: B1 VL
B4: Mab 33 IgG (antibody, V domains shown)
VH: B1 VH with S30Y, D31T, S52N, G53R, P54F, S56G
VL: B1 VL
B5: Mab 22 IgG (antibody, V domains shown)
VH: B1 VH
VL: B1 VL with E31S, E50S, H51G, S53G, T54S
notes: also called antibody 22; clone 22
B6: Mab 42 IgG (antibody, V domains shown)
VH: B1 VH
VL: B1 VL with E31D, Y32E, A35S, E50H, H51S, T75A
notes: also called antibody 42; clone 42
B7: Mab 14 (antibody, V domains shown)
VH: B1 VH with S30Y, D31T, S52N, G53R, P54F, S56G
VL: B1 VL with E31D, Y32E, A35S, E50H, H51S, T75A
notes: IgG variant (VH/VL combination)
B8: Mab 44 (antibody, V domains shown)
VH: B2 VH
VL: B1 VL with E31D, Y32E, A35S, E50H, H51S, T75A
notes: IgG variant
B9: Mab 34 (antibody, V domains shown)
VH: B1 VH with S30Y, D31T, S52N, G53R, P54F, S56G
VL: B1 VL with E31S, E50S, H51G, S53G, T54S
notes: IgG variant
B10: Mab 28 (antibody, V domains shown)
VH: B2 VH
VL: B1 VL with E31S, E50S, H51G, S53G, T54S
notes: IgG variant

The binders below were run against T3, recombinant cynomolgus BCMA Fc(kih) (cynomolgus, UniProt A0A2K5UD97 4-51) (assay: SPR (Biacore T200), IgG captured via anti-human Fab, BCMA Fc(kih) as analyte, 1:1 Langmuir fit).
T3 sequence (A0A2K5UD97 entry or part of it): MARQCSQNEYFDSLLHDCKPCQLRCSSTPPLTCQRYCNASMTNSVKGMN
Experimental: (§1) Assessment of binding of anti-BCMA antibodies to recombinant BCMA by surface plasmon resonance (SPR) as follow. […] The avidity of the interaction between anti-BCMA antibodies and recombinant BCMA Fc(kih) (human and cynomolgus) was determined. Biotinylated recombinant human and cynomolgus BCMA Fc(kih) were directly coupled on a SA chip following instructions (Biacore, Freiburg/Germany). The immobilization level ranged from 200 to 700 RU. […] The dissociation was monitored for 180 seconds. Bulk refractive index differences were corrected for by subtracting the response obtained on the reference flow cell. Here, the anti-BCMA antibodies were flown over an empty surface previously activated and deactivated as described in the standard amine coupling kit. Apparent kinetic constants were derived using the Biacore T200 Evaluation Software (vAA, Biacore AB, Uppsala/Sweden), to fit rate equations for 1:1 Langmuir binding by numerical integration, despite the bivalency of the interaction for comparison purposes. The affinity of the interaction between anti-BCMA antibodies and recombinant human BCMA Fc(kih) was also determined. Anti-human Fab antibody (GE Healthcare) was directly coupled on a CMS chip at pH 5.0 using the standard amine coupling kit (Biacore, Freiburg/Germany). The immobilization level was about 6500 RU. […] The dissociation was monitored for 120 seconds. Bulk refractive index differences were corrected for by subtracting the response obtained on reference flow cell. […] Kinetic constants were derived using the Biacore T100 Evaluation Software (vAA, Biacore AB, Uppsala/Sweden), to fit rate equations for 1:1 Langmuir binding by numerical integration (Table 4).
In the case of B1, the Kd is reported as 0.478 nM, the koff is reported as 0.000235 s⁻¹ and the kon is reported as 491000 M⁻¹ s⁻¹.
B2 showed a Kd of 2.11 nM, a koff of 0.000455 s⁻¹ and a kon of 216000 M⁻¹ s⁻¹.
B3 was tested, and the Kd was 2.17 nM, the koff was 0.000467 s⁻¹ and the kon was 215000 M⁻¹ s⁻¹.
In the case of B4, the Kd is reported as 0.739 nM, the koff is reported as 9.76e-05 s⁻¹ and the kon is reported as 132000 M⁻¹ s⁻¹.
Binder B5 has a Kd of 0.974 nM, a koff of 0.000442 s⁻¹ and a kon of 454000 M⁻¹ s⁻¹.
For B6, the Kd was 0.641 nM, the koff was 0.000453 s⁻¹ and the kon was 707000 M⁻¹ s⁻¹.

Molecular target: T1, recombinant human BCMA Fc(kih)
Assay: as above
Experimental: as §1
Work on B1 yielded a Kd of 0.0516 nM, a koff of 4.39e-05 s⁻¹ and a kon of 851000 M⁻¹ s⁻¹.
B2 showed a Kd of 0.165 nM, a koff of 5.93e-05 s⁻¹ and a kon of 359000 M⁻¹ s⁻¹.
With B3 the Kd was 0.155 nM, the koff was 5.58e-05 s⁻¹ and the kon was 361000 M⁻¹ s⁻¹.
Binder B4 has a Kd of 0.178 nM, a koff of 3.55e-05 s⁻¹ and a kon of 200000 M⁻¹ s⁻¹.
Binder B5 has a Kd of 0.0633 nM, a koff of 5.15e-05 s⁻¹ and a kon of 814000 M⁻¹ s⁻¹.
Work on B6 yielded a Kd of 0.371 nM, a koff of 0.000298 s⁻¹ and a kon of 803000 M⁻¹ s⁻¹.

What follows are binders tested against T2, human BCMA on cells (assay: flow cytometry on HEK-huBCMA cells, PE anti-human Fc detection).
With B1 the EC50 was 2.46 nM and 0.35 µg/mL.
With B7 the EC50 was 1.47 nM and 0.21 µg/mL.
In the case of B2, the EC50 is reported as 10.6 nM and 1.52 µg/mL.
In the case of B3, the EC50 is reported as 1.73 nM and 0.25 µg/mL.
With B8 the EC50 was 1.55 nM and 0.22 µg/mL.
With B9 the EC50 was 1.24 nM and 0.18 µg/mL.
B10 was tested, and the EC50 was 11.3 nM and 1.63 µg/mL.
In the case of B4, the EC50 is reported as 1.18 nM and 0.17 µg/mL.
B5 was tested, and the EC50 was 2.08 nM and 0.3 µg/mL.
With B6 the EC50 was 2.1 nM and 0.3 µg/mL.

Each binder was assayed against T3, recombinant cynomolgus BCMA Fc(kih) (assay: ratio of SPR KD values (KD cynomolgus BCMA / KD human BCMA), reference human BCMA Fc(kih)).
Experimental: The avidity of the interaction between anti-BCMA antibodies and recombinant BCMA Fc(kih) (human and cynomolgus) was determined. Biotinylated recombinant human and cynomolgus BCMA Fc(kih) were directly coupled on a SA chip following instructions (Biacore, Freiburg/Germany). The immobilization level ranged from 200 to 700 RU. […] The dissociation was monitored for 180 seconds. Bulk refractive index differences were corrected for by subtracting the response obtained on the reference flow cell. Here, the anti-BCMA antibodies were flown over an empty surface previously activated and deactivated as described in the standard amine coupling kit. Apparent kinetic constants were derived using the Biacore T200 Evaluation Software (vAA, Biacore AB, Uppsala/Sweden), to fit rate equations for 1:1 Langmuir binding by numerical integration, despite the bivalency of the interaction for comparison purposes. The affinity of the interaction between anti-BCMA antibodies and recombinant human BCMA Fc(kih) was also determined. Anti-human Fab antibody (GE Healthcare) was directly coupled on a CMS chip at pH 5.0 using the standard amine coupling kit (Biacore, Freiburg/Germany). The immobilization level was about 6500 RU. […] The dissociation was monitored for 120 seconds. Bulk refractive index differences were corrected for by subtracting the response obtained on reference flow cell. […] Kinetic constants were derived using the Biacore T100 Evaluation Software (vAA, Biacore AB, Uppsala/Sweden), to fit rate equations for 1:1 Langmuir binding by numerical integration (Table 4).
Based on the affinity values described in Example 2, the affinity of anti-BCMA antibodies to human BCMA vs. cynomolgus BCMA were compared and cyno/hu affinity ratio (gap) values were calculated (Table 5).
B1 showed an Affinity cyno/hu gap of 9.3 fold.
B2 gave an Affinity cyno/hu gap of 12.7 fold.
B3 gave an Affinity cyno/hu gap of 14 fold.
B4 gave an Affinity cyno/hu gap of 4.2 fold.
B5 gave an Affinity cyno/hu gap of 15.4 fold.
B6 was tested, and the Affinity cyno/hu gap was 1.7 fold.

Each binder was assayed against T3, recombinant cynomolgus BCMA Fc(kih) (assay: SPR one-shot kinetics (ProteOn XPR36), IgG captured from HEK293 supernatant via anti-human F(ab)2, BCMA as analyte).
Experimental: (§2) All experiments were performed at 25° C. using PBST as running buffer (10 mM PBS, pH 7.4 and 0.005% (v/v) Tween®20). A ProteOn XPR36 biosensor equipped with GLC and GLM sensor chips and coupling reagents (10 mM sodium acetate, pH 4.5, sulfo-N-hydroxysuccinimide, 1-ethyl-3-(3-dimethylaminopropyl)-carbodiimide hydrochloride [EDC] and ethanolamine) was purchased from BioRad Inc. (Hercules, Calif.). Immobilizations were performed at 30 μl/min. on a GLM chip. pAb (goat) anti hu IgG, F(ab)2 specific Ab (Jackson) was coupled in vertical direction using a standard amine-coupling procedure: all six ligand channels were activated for 5 min with a mixture of EDC (200 mM) and sulfo-NHS (50 mM). Immediately after the surfaces were activated, pAb (goat) anti hu IgG, F(ab)2 specific antibody (50 μg/ml, 10 mM sodium acetate, pH 5) was injected across all six channels for 5 min. Finally, channels were blocked with a 5 min injection of 1 M ethanolamine-HCl (pH 8.5). […] One-shot kinetic measurements were performed by injection of a dilution series of human, cyno and mouse BCMA (50, 10, 2, 0.4, 0.08, 0 nM, 50 μl/min) for 3 min along the vertical channels. Dissociation was monitored for 5 min Kinetic data were analyzed in ProteOn Manager v. 2.1. Processing of the reaction spot data involved applying an interspot-reference and a double-reference step using an inline buffer blank (Myszka, 1999). The processed data from replicate one-shot injections were fit to a simple 1:1 Langmuir binding model without mass transport (O'Shannessy et al., 1993).
Binder B1 has a Kd of 0.051 nM.
B2 gave a Kd of 0.1 nM.
Binder B3 has a Kd of 0.27 nM.
B4 gave a Kd of 0.034 nM.
B6 was tested, and the Kd was 0.39 nM.

Molecular target: T1, recombinant human BCMA Fc(kih)
Assay: as above
Experimental: as §2
B1 showed a Kd of 0.028 nM.
Binder B2 has a Kd of 0.00039 nM.
B3 showed a Kd of 0.062 nM.
B4 was tested, and the Kd was 0.017 nM.
B5 showed a Kd of 0.048 nM.
In the case of B6, the Kd is reported as 0.23 nM.

What follows are binders tested against T4, murine BCMA extracellular domain, monomeric Fc-fusion (murine, UniProt O88472 1-49, site-specifically biotinylated at the C-terminal avi-tag) in the same assay as above.
T4 construct: extracellular domain; also called muBCMA; mouse BCMA; not shown: hinge and Fc of human IgG1, knob chain; avi-tag; unfused human IgG1 Fc portion (hole chain)
T4 sequence (O88472 whole entry, the tested form may be a part): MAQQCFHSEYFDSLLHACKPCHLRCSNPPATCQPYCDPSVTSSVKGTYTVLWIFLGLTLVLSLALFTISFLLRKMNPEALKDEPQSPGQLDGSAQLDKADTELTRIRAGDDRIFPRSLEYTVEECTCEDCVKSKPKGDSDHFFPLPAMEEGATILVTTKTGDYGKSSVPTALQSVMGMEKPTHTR
Experimental: as §2
For B1, the Kd was 0.73 nM.
For B2, the Kd was 0.97 nM.
With B4 the Kd was 0.49 nM.
B5 was tested, and the Kd was 0.9 nM.
B6 was tested, and the Kd was 2.5 nM.
